Results: US20160263250A1 (GENERAL HOSPITAL, published 2016)

Experiments:
Exendin-4X12-VT750 = assay: cell-labeling assay, fluorescence plate reader, MIN6 cells
Exendin-4K12-VT680 = assay: in vivo injection into NOD MIP-GFP mice; intravital imaging and fluorescence histology
Exendin-4 = Exendin-4 (UniProt P26349 48-86); assay: blocking on MIN6 cells: Exendin-4 (0-500 nM), then Exendin-4X12-VT750 (10 nM); competitor Exendin-4X12-VT750

Measured: binding result

B1: GLP-1R naturally expressed on mouse insulinoma-derived MIN6 cells and mouse pancreatic beta cells (receptor)
chain: GPRPQGTTVSLSETVQKWREYRRQCQRFLTEAPLLATGLFCNRTFDDYACWPDGPPGSFVNVSCPWYLPWASSVLQGHVYRFCTAEGLWLHKDNSSLPWRDLSECEESKRGERNFPEEQLLSLYIIYTVGYALSFSALVIASAILVGFRHLHCTRNYIHLNLFASFILRALSVFIKDAALKWMYSTAAQQHQWDGLLSYQDSLGCRLVFLLMQYCVAANYYWLLVEGVYLYTLLAFSVFSEQRIFKLYLSIGWGVPLLFVIPWGIVKYLYEDEGCWTRNSNMNYWLIIRLPILFAIGVNFLIFIRVICIVVSKLKANLMCKTDIKCRLAKSTLTLIPLLGTHEVIFAFVMDEHARGTLRFIKLFTELSFTSFQGLMVAILYCFVNNEVQMEFRKCWERWRLEHLNIQRDCSMKPLKCPTSSVSSGATVGSSVYAATCQSSYS
notes: whole, on cells; The species follows from the cell line and the animals; also called GLP-1R (MIN6); GLP-1 receptors in vivo (mouse)
binds: all assays above
